The record followed here is US20180208918A1.

Data set [1] relates to pPROT8 derived LacZ-proELA-1 fusion protein [β-galactosidase: P00722].
For data set [2], the system named is recombinant MBP-proELA-1 fusion protein (from pPROT5).
The target of data set [3] is recombinant trypsin (TrypZean) (UniProt P00760). The experiment in a line: cell-based or functional assay.
Chain of UniProt P00760 (P00760 24-246): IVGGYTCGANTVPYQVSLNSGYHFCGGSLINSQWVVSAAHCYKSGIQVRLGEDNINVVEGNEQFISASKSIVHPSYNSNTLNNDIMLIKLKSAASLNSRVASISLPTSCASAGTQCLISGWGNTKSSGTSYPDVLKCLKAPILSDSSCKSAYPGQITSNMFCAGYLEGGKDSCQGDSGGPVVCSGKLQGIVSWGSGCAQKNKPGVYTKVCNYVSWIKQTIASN

With trypsin, in data set [1], the “conversion of the fusion protein to enzymatically active human ELA-1 with trypsin” value is “it could not be converted to enzymatically active human ELA-1 with trypsin”. Further, in data set [2], the “digestion of the fusion protein with trypsin (SDS-PAGE; elastase activity by SLAP assay)” value was “The soluble recombinant MBP-proELA-1 protein could be digested with trypsin to yield both MBP and mature human ELA-1”.

B1: soybean trypsin inhibitor (SBTI) (protein, UniProt P01070 25-205, looked up)
chain: DFVLDNEGNPLENGGTYYILSDITAFGGIRAAPTGNERCPLTVVQSRNELDKGIGTIISSPYRIRFIAEGHPLSLKFDSFAVIMLCVGIPTEWSVVEDLPEGPAVKIGENKDAMDGWFRLERVSDDEFNNYKLVFCPQQAEDDKCGDIGISIDHDDGTRRLVVSKNKPLVVQFQKLDKESL
Regarding B1, in data set [3], the Mean trypsin activity (BENZ assay), TrypZean concentration equivalent; PRT-201 from clone 55M3 Vial #1 plus TrypZean spike (to 100 ng/mL) and SBTI (to 10 ug/mL); spike without SBTI 118.7 was below 1.56 ng/mL; the Mean trypsin activity (BENZ assay), TrypZean concentration equivalent; PRT-201 from clone 55M3 Vial #2 plus TrypZean spike (to 100 ng/mL) and SBTI (to 10 ug/mL); spike without SBTI 122.4 is below 1.56 ng/mL; the Mean trypsin activity (BENZ assay), TrypZean concentration equivalent; PRT-201 from clone 55M3 Vial #3 plus TrypZean spike (to 100 ng/mL) and SBTI (to 10 ug/mL); spike without SBTI 122.8 was below 1.56 ng/mL; the Mean trypsin activity (BENZ assay), TrypZean concentration equivalent; PRT-201 from trypsin activated clone plus SBTI (to 10 ug/mL); intrinsic activity without SBTI 8.7 was below 1.56 ng/mL. In data set [3], the Mean trypsin activity (BENZ assay), TrypZean concentration equivalent; PRT-201 from trypsin activated clone plus TrypZean spike (to 100 ng/mL) and SBTI (to 10 ug/mL); spike without SBTI 130.0 is below 1.56 ng/mL; the Mean trypsin activity (BENZ assay), TrypZean concentration equivalent; TrypZean standard 1.56 ng/mL plus SBTI (to 10 ug/mL); without SBTI 2.7 was below 1.56 ng/mL; the Mean trypsin activity (BENZ assay), TrypZean concentration equivalent; TrypZean standard 3.13 ng/mL plus SBTI (to 10 ug/mL); without SBTI 3.7 is below 1.56 ng/mL; the Mean trypsin activity (BENZ assay), TrypZean concentration equivalent; TrypZean standard 6.25 ng/mL plus SBTI (to 10 ug/mL); without SBTI 6.5 is below 1.56 ng/mL. Moreover, in data set [3], the Mean trypsin activity (BENZ assay), TrypZean concentration equivalent; TrypZean standard 12.5 ng/mL plus SBTI (to 10 ug/mL); without SBTI 11.2 is below 1.56 ng/mL; the Mean trypsin activity (BENZ assay), TrypZean concentration equivalent; TrypZean standard 25 ng/mL plus SBTI (to 10 ug/mL); without SBTI 23.5 is below 1.56 ng/mL; the Mean trypsin activity (BENZ assay), TrypZean concentration equivalent; TrypZean standard 50 ng/mL plus SBTI (to 10 ug/mL); without SBTI 49.4 was below 1.56 ng/mL; the Mean trypsin activity (BENZ assay), TrypZean concentration equivalent; TrypZean standard 100 ng/mL plus SBTI (to 10 ug/mL); without SBTI 102.4 was below 1.56 ng/mL.
